We go through 1 molecule from article PMC6321638.

The assay concerns the target L52A or F85A. Put plainly: pull-down; GST-pulldown: purified His-SOUL (5 µM) and GST-ALG-2 (5 µM) with Glutathione Sepharose 4B in buffer B (100 mM Tris-HCl pH 7.5, 100 mM NaCl, 10% glycerol) with 20 µM CaCl2 (or various amounts of Ca2+), 30 min at 4 °C; SDS-PAGE, Coomassie.

B1: His-SOUL^WT (wild-type SOUL fused to His-tag) (natural protein)
chain: MAEEPEPDLGVAEGSEDQALEMPSWKAPEDIDPQPGSYEIRHYGPAKWVSTCVESLDWDSAIQTGFTKLNGYIQGKNEKEMKIKLTAPVTSYVEPGSSPFSESTITISLYIPSEQQPDPPRPSESDVFIEDRAEMTVFVRSFDGFSSGQKNQEQLLTLANILREEGKVFNEKVFYTAGYSSPFQLLDRNNEVWLIQKNEPSVENK
Molecule B1 gave a binding relative to ALG-2^WT (percent) of 80 to 90%.
